Results taken from article PMC3404820.

Target: amphiphilic diblock polypeptide (ADP) derived from elastin-mimetic sequences, unlabeled
Assay: dynamic light scattering

B1: amphiphilic diblock polypeptide (ADP) derived from elastin-mimetic sequences, unlabeled (protein)
chain: VPGVGVPGEGVPGVGVPGEGVPGVGVPGVGVPGEGVPGVGVPGEGVPGVGVPGVGVPGEGVPGVGVPGEGVPGVGVPGVGVPGEGVPGVGVPGEGVPGVGVPGVGVPGEGVPGVGVPGEGVPGVGVPGVGVPGEGVPGVGVPGEGVPGVGVPGVGVPGEGVPGVGVPGEGVPGVGVPGVGVPGEGVPGVGVPGEGVPGVGVPGVGVPGEGVPGVGVPGEGVPGVGVPGVGVPGEGVPGVGVPGEGVPGVGIPGVGIPGVGVPGYGIPGVGIPGVGIPGVGIPGVGVPGYGIPGVGIPGVGIPGVGIPGVGVPGYGIPGVGIPGVGIPGVGIPGVGVPGYGIPGVGIPGVGIPGVGIPGVGVPGYGIPGVGIPGVGIPGVGIPGVGVPGYGIPGVGIPGVGIPGVGIPGVGVPGYGIPGVGIPGVGIPGVGIPGVGVPGYGIPGVGIPGVGIPGVGIPGVGVPGYGIPGVGIPGVGIPGVGIPGVGVPGYGIPGVGIPGVGIPGVGIPGVGVPGYGIPGVGIPGVGIPGVGIPGVGVPGYGIPGVGIPGVGIPGVGIPGVGVPGYGIPGVGIPGVGIPGVGIPGVGVPGYGIPGVGIPGVGIPGVGIPGVGVPGYGIPGVGIPGVG
modifications: not checked
B1 gave a stoichiometry N (chains per micelle) of 106.
